Changes are numbered by the printed parent chain.
T1: Siglec-4 (UniProt P20916 20-516)
T1 construct: also called MAG
T1 sequence (looked up): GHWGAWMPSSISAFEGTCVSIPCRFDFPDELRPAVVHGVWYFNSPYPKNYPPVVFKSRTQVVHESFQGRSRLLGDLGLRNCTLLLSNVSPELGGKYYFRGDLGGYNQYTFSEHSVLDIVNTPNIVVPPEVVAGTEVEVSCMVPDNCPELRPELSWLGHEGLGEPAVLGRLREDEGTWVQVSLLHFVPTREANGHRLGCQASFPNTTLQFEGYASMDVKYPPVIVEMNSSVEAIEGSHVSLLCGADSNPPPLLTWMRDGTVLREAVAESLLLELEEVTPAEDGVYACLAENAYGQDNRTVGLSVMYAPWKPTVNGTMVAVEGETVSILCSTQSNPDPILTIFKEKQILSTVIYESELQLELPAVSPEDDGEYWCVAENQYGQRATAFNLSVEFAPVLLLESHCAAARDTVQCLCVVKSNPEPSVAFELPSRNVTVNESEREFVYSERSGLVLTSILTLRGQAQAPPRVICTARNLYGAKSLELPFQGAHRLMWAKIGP

T2: CD23 (UniProt P06734 48-321)
T2 sequence (looked up): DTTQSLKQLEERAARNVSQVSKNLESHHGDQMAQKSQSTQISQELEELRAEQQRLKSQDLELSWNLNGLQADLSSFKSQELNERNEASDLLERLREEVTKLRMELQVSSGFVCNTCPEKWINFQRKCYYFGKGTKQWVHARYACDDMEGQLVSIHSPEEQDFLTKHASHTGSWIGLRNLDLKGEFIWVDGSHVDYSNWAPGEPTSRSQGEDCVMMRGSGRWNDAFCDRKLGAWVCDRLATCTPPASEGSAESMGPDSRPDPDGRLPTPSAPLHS

T3: dectin-1 (UniProt Q9BXN2-2 66-201)
T3 construct: also called dec-1
T3 sequence (looked up): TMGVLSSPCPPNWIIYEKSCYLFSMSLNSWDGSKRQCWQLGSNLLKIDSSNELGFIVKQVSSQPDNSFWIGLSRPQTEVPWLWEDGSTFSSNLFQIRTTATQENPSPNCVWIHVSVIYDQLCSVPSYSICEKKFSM

T4: dectin-2 (UniProt Q6EIG7 46-209)
T4 construct: also called dec-2
T4 sequence (looked up): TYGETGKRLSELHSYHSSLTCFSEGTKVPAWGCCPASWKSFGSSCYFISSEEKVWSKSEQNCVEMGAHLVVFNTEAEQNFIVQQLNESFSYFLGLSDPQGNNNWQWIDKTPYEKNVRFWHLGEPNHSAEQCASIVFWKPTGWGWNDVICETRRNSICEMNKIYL

T5: tetrameric human DC-SIGN (human, UniProt Q9NNX6 66-404)
T5 sequence (looked up): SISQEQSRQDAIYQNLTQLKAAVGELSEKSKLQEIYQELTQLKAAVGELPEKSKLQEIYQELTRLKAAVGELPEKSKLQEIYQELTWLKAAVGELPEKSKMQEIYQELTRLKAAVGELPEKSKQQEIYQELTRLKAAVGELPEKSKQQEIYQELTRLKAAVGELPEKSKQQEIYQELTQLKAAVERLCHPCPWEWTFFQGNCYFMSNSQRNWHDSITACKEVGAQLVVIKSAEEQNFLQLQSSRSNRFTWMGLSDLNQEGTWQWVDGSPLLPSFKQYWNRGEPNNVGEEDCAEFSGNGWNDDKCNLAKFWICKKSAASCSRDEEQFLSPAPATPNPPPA

T6: clec-4a (UniProt Q9UMR7 70-237)
T6 construct: also called DCIR
T6 sequence (looked up): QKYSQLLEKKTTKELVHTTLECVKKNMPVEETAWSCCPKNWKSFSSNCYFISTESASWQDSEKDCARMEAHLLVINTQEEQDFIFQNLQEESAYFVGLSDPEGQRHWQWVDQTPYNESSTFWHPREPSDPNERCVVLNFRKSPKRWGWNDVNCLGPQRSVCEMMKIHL

T7: clec-4d (UniProt Q8WXI8 39-215)
T7 sequence (looked up): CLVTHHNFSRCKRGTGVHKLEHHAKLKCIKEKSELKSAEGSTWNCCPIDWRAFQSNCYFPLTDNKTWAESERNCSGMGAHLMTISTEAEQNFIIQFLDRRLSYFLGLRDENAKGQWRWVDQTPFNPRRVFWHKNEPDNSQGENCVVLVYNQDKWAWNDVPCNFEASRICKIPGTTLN

T8: MMR (UniProt P22897 19-1383)
T8 sequence (looked up): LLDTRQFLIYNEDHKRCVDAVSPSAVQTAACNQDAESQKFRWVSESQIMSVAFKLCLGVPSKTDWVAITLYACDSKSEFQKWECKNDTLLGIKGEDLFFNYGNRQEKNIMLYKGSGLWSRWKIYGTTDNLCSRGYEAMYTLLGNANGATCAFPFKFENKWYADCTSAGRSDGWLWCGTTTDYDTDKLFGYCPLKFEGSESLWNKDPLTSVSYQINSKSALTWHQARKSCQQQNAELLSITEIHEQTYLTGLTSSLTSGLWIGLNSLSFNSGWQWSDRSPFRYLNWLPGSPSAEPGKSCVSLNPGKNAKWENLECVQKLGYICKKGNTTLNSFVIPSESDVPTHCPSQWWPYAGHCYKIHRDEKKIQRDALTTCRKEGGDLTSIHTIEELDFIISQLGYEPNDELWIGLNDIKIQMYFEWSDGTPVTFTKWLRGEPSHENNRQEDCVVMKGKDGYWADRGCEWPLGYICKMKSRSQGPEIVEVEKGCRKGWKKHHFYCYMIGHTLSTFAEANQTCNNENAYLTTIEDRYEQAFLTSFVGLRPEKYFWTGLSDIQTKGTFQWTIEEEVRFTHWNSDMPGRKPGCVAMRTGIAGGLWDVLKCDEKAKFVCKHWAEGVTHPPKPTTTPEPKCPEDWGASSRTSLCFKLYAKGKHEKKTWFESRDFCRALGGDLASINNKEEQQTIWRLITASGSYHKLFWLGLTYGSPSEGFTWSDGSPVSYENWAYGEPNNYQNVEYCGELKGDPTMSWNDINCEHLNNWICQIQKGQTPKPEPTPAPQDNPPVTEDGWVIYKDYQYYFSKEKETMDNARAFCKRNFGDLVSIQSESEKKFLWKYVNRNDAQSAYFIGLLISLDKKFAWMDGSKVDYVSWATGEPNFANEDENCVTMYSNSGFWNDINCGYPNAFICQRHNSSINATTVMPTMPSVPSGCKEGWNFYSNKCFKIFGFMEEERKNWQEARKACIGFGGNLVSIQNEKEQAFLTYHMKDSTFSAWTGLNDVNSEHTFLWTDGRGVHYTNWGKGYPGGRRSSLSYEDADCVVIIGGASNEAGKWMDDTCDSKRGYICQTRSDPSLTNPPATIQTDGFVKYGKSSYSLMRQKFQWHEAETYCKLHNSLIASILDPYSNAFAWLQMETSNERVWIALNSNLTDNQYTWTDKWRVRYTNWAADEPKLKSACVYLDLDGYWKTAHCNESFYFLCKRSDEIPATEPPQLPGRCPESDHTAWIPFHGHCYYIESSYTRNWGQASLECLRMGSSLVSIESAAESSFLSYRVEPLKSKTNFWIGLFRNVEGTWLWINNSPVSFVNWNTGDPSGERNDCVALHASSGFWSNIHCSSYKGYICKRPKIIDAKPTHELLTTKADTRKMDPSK

T9: human FcγRIIA (human, UniProt P12318 36-218)
T9 sequence (looked up): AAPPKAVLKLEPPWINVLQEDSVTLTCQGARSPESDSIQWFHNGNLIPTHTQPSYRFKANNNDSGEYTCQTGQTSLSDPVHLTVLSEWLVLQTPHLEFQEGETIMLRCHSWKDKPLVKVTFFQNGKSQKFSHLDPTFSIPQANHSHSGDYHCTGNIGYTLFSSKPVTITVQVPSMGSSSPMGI

T10: human FcγRIIB (human, UniProt P31994 46-217)
T10 construct: also called CD32B
T10 sequence (looked up): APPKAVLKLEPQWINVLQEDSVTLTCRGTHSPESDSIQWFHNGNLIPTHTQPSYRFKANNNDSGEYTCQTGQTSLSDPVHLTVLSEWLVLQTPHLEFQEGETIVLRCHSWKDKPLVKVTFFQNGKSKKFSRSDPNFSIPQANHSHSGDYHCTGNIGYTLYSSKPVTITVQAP

B1: [change]/[change] (other)
chain: DKTHTCPPCPAPELLGGPSVFLFPPKPKDTLMISRTPEVTCVVVDVSHEDPEVKFNWYVDGVEVHNAKTKPREEQYASTYRVVSVLTVCLQDWLNGKEYKCKVSNKALPAPIEKTISKAKGQPREPQVYTLPPSREEMTKNQVSLTCLVKGFYPSDIAVEWESNGQPENNYKTTPPVLDSDGSFFLYSKLTVDKSRWQQGNVFSCSVMHEALHNHYTQKSLSLSPGKLVLGPPLYNVSLVMSDTAGTAY
B2: [change]/[change]/[change] (other)
chain: B1 chain with D1N, A77N, N236A
B3: [change]/[change]/[change] (other)
chain: B1 chain with D1N
B4: [change]/[change]/[change] (other)
chain: B1 chain with N236A
B5: [change]/[change] (other)
chain: B1 chain with D1N, A77N
B6: [change]/[change]/[change]/[change] (other)
chain: B1 chain with D1N, N236A

Molecular target: T11, Siglec-2 (UniProt P20273 20-687)
T11 construct: also called CD22
Assay: ELISA

Binder | binding result
B1 | no binding
B2 | no binding
B3 | no binding

Molecular target: Siglec-3 (UniProt P20138 18-259)
Sequence (P20138 18-259 limits assumed): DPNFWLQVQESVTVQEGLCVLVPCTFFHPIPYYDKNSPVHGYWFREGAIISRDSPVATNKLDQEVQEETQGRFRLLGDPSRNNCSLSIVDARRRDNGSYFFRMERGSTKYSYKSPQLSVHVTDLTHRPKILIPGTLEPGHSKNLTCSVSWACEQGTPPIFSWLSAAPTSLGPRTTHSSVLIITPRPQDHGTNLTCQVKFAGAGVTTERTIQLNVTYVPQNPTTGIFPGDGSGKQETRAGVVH
Assay: ELISA

Binder | binding result
B1 | no binding
B2 | no binding
B3 | no binding
B4 | no binding
B5 | no binding

Molecular target: T1, Siglec-4
Assay: ELISA

Binder | binding result
B1 | no binding
B3 | no binding

Molecular target: T2, CD23
Assay: ELISA

Binder | binding result
B2 | no binding
B4 | no binding

Molecular target: T3, dectin-1
Assay: ELISA

Binder | binding result
B1 | no binding
B2 | no binding
B3 | no binding
B6 | no binding
B5 | no binding

Molecular target: T4, dectin-2
Assay: ELISA

Binder | binding result
B1 | no binding
B3 | no binding
B5 | no binding

Molecular target: T5, tetrameric human DC-SIGN
Assay: ELISA

Binder | binding result
B1 | no binding
B2 | no binding
B3 | no binding
B4 | binds
B6 | no binding
B5 | no binding

Molecular target: T6, clec-4a
Assay: ELISA

Binder | binding result
B1 | no binding
B2 | no binding
B3 | no binding
B4 | no binding
B6 | no binding
B5 | no binding

Molecular target: T7, clec-4d
Assay: ELISA

Binder | binding result
B1 | no binding
B2 | no binding
B3 | no binding
B4 | no binding
B5 | no binding

Molecular target: MBL (UniProt P11226 21-248)
Sequence (P11226 21-248 limits assumed): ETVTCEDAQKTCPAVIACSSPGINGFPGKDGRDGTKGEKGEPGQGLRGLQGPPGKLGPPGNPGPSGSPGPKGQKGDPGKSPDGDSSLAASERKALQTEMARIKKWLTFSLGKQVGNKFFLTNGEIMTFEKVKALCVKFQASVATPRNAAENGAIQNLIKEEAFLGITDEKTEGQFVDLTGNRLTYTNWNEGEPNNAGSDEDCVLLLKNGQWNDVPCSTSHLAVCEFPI
Assay: ELISA

Binder | binding result
B1 | no binding
B2 | no binding
B3 | no binding
B6 | no binding
B5 | no binding

Molecular target: T8, MMR
Assay: ELISA

Binder | binding result
B1 | no binding
B2 | no binding
B3 | no binding
B6 | no binding
B5 | no binding

Molecular target: T9, human FcγRIIA
Assay: ELISA

Binder | binding result
B6 | no binding

Molecular target: T10, human FcγRIIB
Assay: ELISA

Binder | binding result
B1 | no binding
B2 | no binding
B3 | no binding
B4 | binds
B6 | no binding

Molecular target: human FcγRIIIA (human, UniProt P08637 17-208)
Sequence (P08637 17-208 limits assumed): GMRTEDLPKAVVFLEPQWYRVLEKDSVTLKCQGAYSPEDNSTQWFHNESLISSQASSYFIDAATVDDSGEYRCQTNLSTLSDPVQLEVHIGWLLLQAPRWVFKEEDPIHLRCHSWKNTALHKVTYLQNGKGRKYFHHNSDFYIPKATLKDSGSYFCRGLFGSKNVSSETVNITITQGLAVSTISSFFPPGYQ
Assay: ELISA

Binder | binding result
B1 | no binding
B2 | binds
B3 | no binding
B4 | no binding
B6 | no binding
B5 | no binding

Molecular target: human FcγRIIIB (human, UniProt O75015 17-200)
Sequence (O75015 17-200 limits assumed): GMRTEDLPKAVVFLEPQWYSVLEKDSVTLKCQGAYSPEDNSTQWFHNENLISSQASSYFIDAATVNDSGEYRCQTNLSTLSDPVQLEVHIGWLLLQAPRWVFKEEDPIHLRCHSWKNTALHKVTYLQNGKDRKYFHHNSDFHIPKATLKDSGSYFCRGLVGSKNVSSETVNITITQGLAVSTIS
Assay: ELISA

Binder | binding result
B6 | no binding

Molecular target: C1q (UniProt P02745 23-245; P02746 28-253; P02747 29-245)
Sequence (P02745 23-245, chain 1 of 3): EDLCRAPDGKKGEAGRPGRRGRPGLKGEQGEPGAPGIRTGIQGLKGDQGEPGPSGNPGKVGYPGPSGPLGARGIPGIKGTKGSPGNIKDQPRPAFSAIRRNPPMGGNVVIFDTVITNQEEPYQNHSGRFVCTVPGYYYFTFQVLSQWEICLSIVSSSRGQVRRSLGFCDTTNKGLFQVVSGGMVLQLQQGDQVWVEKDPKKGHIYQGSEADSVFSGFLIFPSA
Sequence (P02746 28-253, chain 2 of 3): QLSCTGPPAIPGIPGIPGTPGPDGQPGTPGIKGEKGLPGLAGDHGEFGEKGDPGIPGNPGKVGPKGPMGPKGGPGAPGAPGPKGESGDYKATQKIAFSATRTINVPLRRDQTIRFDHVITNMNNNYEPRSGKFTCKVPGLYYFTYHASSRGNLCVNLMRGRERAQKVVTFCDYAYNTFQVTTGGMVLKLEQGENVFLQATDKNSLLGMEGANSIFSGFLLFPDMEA
Sequence (P02747 29-245, chain 3 of 3): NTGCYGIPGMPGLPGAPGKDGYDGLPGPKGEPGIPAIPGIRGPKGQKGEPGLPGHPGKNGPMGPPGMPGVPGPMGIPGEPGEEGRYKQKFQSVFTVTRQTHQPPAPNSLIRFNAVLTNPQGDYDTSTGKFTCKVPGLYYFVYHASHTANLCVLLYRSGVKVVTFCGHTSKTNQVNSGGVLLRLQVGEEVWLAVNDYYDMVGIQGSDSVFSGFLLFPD
Assay: ELISA

Binder | binding result
B1 | no binding
B3 | no binding
B5 | no binding
